Two molecules from PMC10514464 (iScience, 2023) can be followed below.

Where no end group is shown, it is not given here. The star is where a group is joined. FITC = O=C1OC2(c3ccc(O)cc3Oc3cc(O)ccc32)c2ccc(NC(=S)*)cc21

T1: FITC-labeled pepHePTP
T1 peptide: {FITC}-RLQERRGSNVALMLDV

B1: doubly-phosphorylated wild-type rat ERK2 oxidized with H2O2 (sulfenylated on C159) (enzyme)
chain: MAAAAAAGPEMVRGQVFDVGPRYTNLSYIGEGAYGMVCSAYDNLNKVRVAIKKISPFEHQTYCQRTLREIKILLRFRHENIIGINDIIRAPTIEQMKDVYIVQDLMETDLYKLLKTQHLSNDHICYFLYQILRGLKYIHSANVLHRDLKPSNLLLNTTCDLKICDFGLARVADPDHDHTGFLTEYVATRWYRAPEIMLNSKGYTKSIDIWSVGCILAEMLSNRPIFPGKHYLDQLNHILGILGSPSQEDLNCIINLKARNYLLSLPHKNKVPWNRLFPNADSKALDLLDKMLTFNPHKRIEVEQALAHPYLEQYYDPSDEPIAEAPFKFDMELDDLPKEKLKELIFEETARFQPGYRS
B2: Lig-D peptide (peptide)
peptide: Ac-FQRKTLQRRNLKGLNLNL-NH2

In one assay the target is T1, FITC-labeled pepHePTP. Put plainly: fluorescence polarisation.
Assay [1] deals with B1. Put plainly: SPR.

For B1, in the assay with FITC-labeled pepHePTP, the “fold increase in KD,app against untreated ERK2” value was around 100 fold.

B2 had a Kd in assay [1] of 58 µM.
